From patent US20230002466A1 (ELPIS BIOPHARMACEUTICALS, published 2023)

T1: human IL2Rβ (human, UniProt P14784 27-239)
T1 construct: also called IL2β; CD122
T1 sequence (looked up): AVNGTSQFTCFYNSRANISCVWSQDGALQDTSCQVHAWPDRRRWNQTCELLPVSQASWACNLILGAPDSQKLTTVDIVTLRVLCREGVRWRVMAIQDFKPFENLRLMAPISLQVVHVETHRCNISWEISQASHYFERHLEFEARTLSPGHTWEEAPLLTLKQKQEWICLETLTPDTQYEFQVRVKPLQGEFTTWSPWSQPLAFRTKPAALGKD

T2: human IL2Rβ Fc fusion protein (human, UniProt P14784 27-239)
T2 construct: also called Recombinant Fc-tagged human IL2Rβ; not shown: Fc
T2 sequence (looked up): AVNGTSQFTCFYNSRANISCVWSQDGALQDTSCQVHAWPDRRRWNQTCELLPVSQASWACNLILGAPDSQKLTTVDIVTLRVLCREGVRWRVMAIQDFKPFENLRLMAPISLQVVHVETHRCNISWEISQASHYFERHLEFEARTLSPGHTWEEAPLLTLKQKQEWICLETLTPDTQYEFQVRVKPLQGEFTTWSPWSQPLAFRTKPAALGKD

T3: human IL2Rα (human, UniProt P01589 22-213, limits assumed)
T3 construct: also called IL2α; CD25
T3 sequence (looked up): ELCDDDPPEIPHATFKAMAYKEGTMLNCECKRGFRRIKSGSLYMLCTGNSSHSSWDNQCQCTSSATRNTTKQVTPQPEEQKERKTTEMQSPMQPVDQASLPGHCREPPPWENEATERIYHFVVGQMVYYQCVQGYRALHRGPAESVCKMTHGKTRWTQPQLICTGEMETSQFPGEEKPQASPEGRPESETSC

T4: human IL2Rα Fc fusion protein (human, UniProt P01589 22-213, limits assumed)
T4 construct: also called Recombinant Fc-tagged human IL2Rα; not shown: Fc
T4 sequence (looked up): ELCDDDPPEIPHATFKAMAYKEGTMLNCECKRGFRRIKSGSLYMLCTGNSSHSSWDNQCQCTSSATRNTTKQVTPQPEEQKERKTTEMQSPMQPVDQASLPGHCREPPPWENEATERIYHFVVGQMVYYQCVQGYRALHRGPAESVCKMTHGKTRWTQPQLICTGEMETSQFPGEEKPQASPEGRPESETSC


Legend:
[1] = molecular target: T1, human IL2Rβ; test: SPR, receptor captured on Protein A chip, E. coli-produced IL2
Protocol: The assay was run with Biacore T200 control software version 2.0. For each cycle, 1 μg/mL of human IL2Rβ or IL2Rα was captured for 60 seconds at flow rate of 10 μL/min on flow cell 2 in 1×HBST buffer on Protein A sensor chip. Two-fold serial diluted HIS tag purified engineered IL2 mutant was injected onto both reference flow cell 1 and IL2Rβ or IL2Rα captured flow cell 2 for 150 seconds at flow rate of 30 μL/min followed by washing for 300 seconds. The flow cells were then regenerated with Glycine pH 2 for 40 seconds at a flow rate of 30 μL/mins. Eight concentration points from 0 to 100 nM were assayed for each IL2Rβ agonist clone 96-well plate format. The kinetics data was analyzed with Biacore T200 evaluation software 3000. The specific binding response unit was derived from subtraction of binding to reference flow cell 1 from target flow cell 2.

[2] = molecular target: T2, human IL2Rβ Fc fusion protein; test: ELISA, Fc-tagged receptor coated, anti-HisTag-HRP
Protocol: Recombinant Fc-tagged human IL2Rα and IL2Rβ were added in 25 uL of 1×PBS to wells of 384-well plate and incubated overnight at 4° C. to coat the plates. Plates were washed three times with 0.05% Tween20/1×PBS. Plates were blocked with 100 uL of SuperBlock for 1 hr at RT and then washed 3 times with 0.05% Tween20/1×PBS. IL2 mutants were diluted in 0.05% Tween 20/1×PBS from 1000 nM to 0 nM and added to plates for 2 hrs at room temperature. Plates were then washed 6 times with 0.05% Tween20/1×PBS. Anti-HisTag-HRP was diluted 1:5000 in 0.05% Tween20/1×PBS and added to plates for 1 hr at RT. Plates were then washed 6 times with 0.05% Tween 20/1×PBS, and TMB was added to develop blue color. Reactions were stopped with 2N […] and light absorbance at 450 nm was read on a BioTek plate reader.

[3] = molecular target: T3, human IL2Rα; test: SPR, IL2Rα captured on Protein A chip, IL2 at 100 nM
Protocol: The binding kinetics of IL2Rα-reduced binding clones to IL2Rα was assessed utilizing SPR technology with a Biacore T200, software version 2.0. For each cycle, 1 ug/mL of human IL2Rα was captured for 60 seconds at a flow rate of 10 uL/min on flow cell 2 in 1×HBSP buffer on a Protein A sensor chip. 100 nM of each HIS and Flag tag purified IL2 mutant was injected onto both the reference flow cell 1 and IL2Rα captured flow cell 2 for 150 seconds at a flow rate of 30 uL/min followed by washing for 300 seconds. The flow cells were then regenerated with Glycine pH 2.0 for 60 seconds at a flow rate of 30 uL/min. A HBSP+ buffer was included with each sample as a baseline control. The assay was set up in a 96-well format. The kinetics data was analyzed with Biacore T200 evaluation software 3.0. The specific binding response unit was derived from subtraction of binding to reference flow cell 1 from IL2Rα flow cell 2 and subtraction of buffer control. […] Relative response (RU) was determined for each IL2Rα-reduced binding clone (FIG. 4, Table 3).

[4] = molecular target: T2, human IL2Rβ Fc fusion protein; test: ELISA, receptor-Fc coated, anti-Flag HRP
Protocol: (§1) Briefly, 384 well plate was immobilized with human IL2Rα and IL2Rβ Fc fusion proteins at a final concentration of 2 ug/mL in 1×PBS in total volume of 25 uL per well. The plate was incubated overnight at 4 C and blocked with 80 uL of superblock per well for 1 hour. […] Each dilution was added to IL2Rα or IL2Rβ wells in parallel in duplicates. The IL2 mutant binding was detected by adding 25 uL of anti-Flag HRP diluted at 1:5000 in 1×PBST. In between each step, the plate was washed three times with 1×PBST using a plate washer. The plate was then developed with 25 uL of TMB substrate for five minutes and stopped by adding 25 ul of 2N sulfuric acid. The plate was read at OD450 nm Biotek plate reader and the EC50 was analyzed with Prism 8.1 software to generate EC50 values (FIG. 15A for IL2Rα, and FIG. 15B for IL2Rβ, summarized in Table 9).

[5] = molecular target: T4, human IL2Rα Fc fusion protein; test: ELISA, receptor-Fc coated, anti-Flag HRP
Protocol: as §1

Binder | RU (at 100 nM) [3] [RU] | Relevant binding to WT IL2 (%) [3] [%] | EC50 [4] [nM] | EC50 [5] [nM] | further results
EP007 (ligand, not shown: C-terminal Flag and 6xHis tags) APTSSSTKKTQLQLEHLLLDLQMILNGINNYKNPKLTRMLTFKFYMPKKATELKHLQCLEEELKPLEEVLNLAQSKNFHLKWGDAVSNARVLAGALKGSETTFMCEYADETATIVEFLNRWITFCQSIISTLT |  |  |  |  | Kd [1]: 0.37 nM; koff [1]: 0.000263 s⁻¹; kon [1]: 709000 M⁻¹ s⁻¹; relative activity IL2Rβ (KD: fold) against WT IL2 [1]: 11700 fold
EP350 (ligand, not shown: His and Flag tags) APTSSSTKKTQLQLEHLLLDLQMILNGINNYKNPKLTRMLTAKFYMPKKATELKHLQCLEEELKPLEEVLNLAQSKNFHLTARDAISNINVIIQELKGSETTFMCEYADETATIVEFLNRWITFCQSIISTLT |  |  |  |  | EC50 [2]: 39.9 nM
EP100 (ligand) APTSSSTKKTQLQLEHLLLDLQMILNGINNYKNPVLTRMLTIKFYMPKKATELKHLQCLEEELKPLEEVLNLAQSKNFHLRPRDLISNINVIVLELKGSETTFMCEYADETATIVEFLNRWITFSQSIISTLT | 1.7 | 1.19 |  |  | 
EP249 (ligand, not shown: His and Flag tags) APTSSSTKKTQLQLEHLLLDLQMILNGINNYKNPKLTRMLTFKFYMPKKATELKHLQCLEEELKPLEEVLNLAQSKNFHLTPRDLIDNIRVIIQELKGSETTFMCEYADETATIVEFLNRWITFCQSIISTLT |  |  | 576 | 20.2 | 
EP246 (ligand, not shown: His and Flag tags) APTSSSTKKTQLQLEHLLLDLQMILNGINNYKNPKLTRMLTFKFYMPKKATELKHLQCLEEELKPLEEVLNLAQSKNFHLRARDAIDNINVIIQELKGSETTFMCEYADETATIVEFLNRWITFCQSIISTLT |  |  | 269 | 7 | 
EP347 (ligand, not shown: His and Flag tags) APTSSSTKKTQLQLEHLLLDLQMILNGINNYKNPKLTVMLTFKFSMPKKATELKHLQCLEEELKPLEEVLNLAQSKNFHLTPRDAIDNIRVIVQELKGSETTFMCEYADETATIVEFLNRWITFCQSIISTLT |  |  |  |  | EC50 [2]: 77.6 nM
EP244 (ligand, not shown: His and Flag tags) APTSSSTKKTQLQLEHLLLDLQMILNGINNYKNPKLTRMLTFKFYMPKKATELKHLQCLEEELKPLEEVLNLAQSKNFHLRARDLIDNIRVIIQELKGSETTFMCEYADETATIVEFLNRWITFCQSIISTLT |  |  | 2830 | 10.2 | 
EP110 (ligand, not shown: His and Flag tags) APTSSSTKKTQLQLEHLLLDLQMILNGINNYKNPLLTDMLTRKFYMPKKATELKHLQCLEEELKPLEEVLNLAQSKNFHLRPRDLISNINVIVLELKGSETTFMCEYADETATIVEFLNRWITFCQSIISTLT | 2.6 | 1.83 |  |  | 
EP257 (ligand, not shown: His and Flag tags) APTSSSTKKTQLQLEHLLLDLQMILNGINNYKNPKLTRMLTFKFYMPKKATELKHLQCLEEELKPLEEVLNLAQSKNFHLTARDLIDNIRVIILELKGSETTFMCEYADETATIVEFLNRWITFCQSIISTLT |  |  |  | 5.6 | 
EP117 (ligand) APTSSSTKKTQLQLEHLLLDLQMILNGINNYKNPKLTYMLTFKFSMPKKATELKHLQCLEEELKPLEEVLNLAQSKNFHLRPRDLISNINVIVLELKGSETTFMCEYADETATIVEFLNRWITFSQSIISTLT | 2.5 | 1.76 |  |  | 
EP243 (ligand, not shown: His and Flag tags) APTSSSTKKTQLQLEHLLLDLQMILNGINNYKNPKLTRMLTFKFYMPKKATELKHLQCLEEELKPLEEVLNLAQSKNFHLRPRDAIDNIRVIIQELKGSETTFMCEYADETATIVEFLNRWITFCQSIISTLT |  |  | 217 | 6.7 | 
EP125 (ligand) APTSSSTKKTQLQLEHLLLDLQMILNGINNYKNPKLTNMLTFKFAMPKKATELKHLQCLEEELKPLEEVLNLAQSKNFHLRPRDLISNINVIVLELKGSETTFMCEYADETATIVEFLNRWITFSQSIISTLT | 6.1 | 4.29 |  |  | 
EP248 (ligand, not shown: His and Flag tags) APTSSSTKKTQLQLEHLLLDLQMILNGINNYKNPKLTRMLTFKFYMPKKATELKHLQCLEEELKPLEEVLNLAQSKNFHLRARDAIDNIRVIILELKGSETTFMCEYADETATIVEFLNRWITFCQSIISTLT |  |  | 188 | 13.4 | 
EP245 (ligand, not shown: His and Flag tags) APTSSSTKKTQLQLEHLLLDLQMILNGINNYKNPKLTRMLTFKFYMPKKATELKHLQCLEEELKPLEEVLNLAQSKNFHLRARDAISNIRVIIQELKGSETTFMCEYADETATIVEFLNRWITFCQSIISTLT |  |  | 123 | 4.8 | 
EP102 (ligand, not shown: small tags and cut ends) APTSSSTKKTQLQLEHLLLDLQMILNGINNYKNPDLTSMLAFKFYMPKKATELKHLQCLEEELKPLEEVLNLAQSKNFHLRPRDLISNINVIVLELKGSETTFMCEYADETATIVEFLNRWITFSQSIISTLT | 2.7 | 1.9 |  |  | 
EP101 (ligand) APTSSSTKKTQLQLEHLLLDLQMILNGINNYKNPKLTRMLTLKFPMPKKATELKHLQCLEEELKPLEEVLNLAQSKNFHLRPRDLISNINVIVLELKGSETTFMCEYADETATIVEFLNRWITFSQSIISTLT | 2.5 | 1.76 |  |  | 
EP120 (ligand) APTSSSTKKTQLQLEHLLLDLQMILNGINNYKNPKLTVMLTFKFTMPKKATELKHLQCLEEELKPLEEVLNLAQSKNFHLRPRDLISNINVIVLELKGSETTFMCEYADETATIVEFLNRWITFSQSIISTLT | 3.6 | 2.54 |  |  | 
